Data published in patent US20230192897A1 (NUMAB THERAPEUTICS, published 2023).

What was measured:
mouse serum albumin = molecular target: T1, mouse serum albumin (mouse, UniProt P07724 25-608); assay: SPR, SA coupled to chip
T1 construct: Coupled directly to the CM5 chip; also called MSA; mouse SA
Experimental: (§1) Affinity of molecules to serum albumin (SA) of the different species was determined by SPR measurements using a Biacore T200 device (GE Healthcare). SA was directly coupled to a CM5 sensor chip (GE Healthcare) using amine coupling chemistry. […] The assay was run in a 1× PBS-Tween buffer at pH 5.5.

[1] = molecular target: CD137 on Jurkat NFkB reporter cells (human, UniProt Q07011 24-255); assay: cell-based or functional assay
human PDL1 on cells = human PDL1 on cells (human, UniProt Q9NZQ7 19-290); assay: cell-based or functional assay
Fc tagged human PDL1 = molecular target: T2, Fc tagged human PDL1 (human, UniProt Q9NZQ7 19-239); assay: SPR
T2 construct: Bought (Sino Biological, cat. 10084-H02H); captured on the SPR chip; also called PDL1-Fc chimeric protein
Method in brief: (§2)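 Kinetics were fitted with a one-to-one Langmuir model to give apparent ka, kd and KD. Binders at 0.12-90 nM (three-fold series) flowed 3 min, with 10 min dissociation and 3 M MgCl₂ regeneration, on a Biacore T200.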

Fc tagged human CD137 = molecular target: T3, Fc tagged human CD137 (human, UniProt Q07011 24-186); assay: SPR
T3 construct: also called CD137-Fc chimeric protein
Method in brief: as §2

human serum albumin = molecular target: T4, human serum albumin (human, UniProt P02768 25-609); assay: SPR, SA coupled to chip, pH 5.5
T4 construct: Coupled directly to the CM5 chip; also called HSA; human SA
Experimental: as §1

- binding result (mouse serum albumin): no binding
- max. activation (%), NFkB reporter, CHO-PD-L1, 24 h, +HSA [1]: 369%
- IC50 (ng/ml), NF-AT potency assay, +HSA (human PDL1 on cells): 275 ng/mL
- rel. IC50 (avelumab/test), +HSA (human PDL1 on cells): 0.25 fold
- Kd (Fc tagged human PDL1): 0.0066 nM
- kon (Fc tagged human PDL1): 2e+06 M⁻¹ s⁻¹
- Kd (Fc tagged human CD137): 3 nM
- koff (Fc tagged human CD137): 0.00062 s⁻¹
- kon (Fc tagged human CD137): 200000 M⁻¹ s⁻¹
- koff (human serum albumin): 0.0003 s⁻¹
B1: PRO963 (other)
chain: DIQMTQSPSSLSASVGDRVTITCQASQSINDYLAWYQQKPGKAPKLLIYKASTLASGVPSRFSGSGSGTDFTLTISSLQPEDFATYYCQQGYIITDIDNVFGTGTKVTVLGGGGGSQVQLQESGPGLVKPSETLSLTCKVSGFSFSNSYWICWIRQPPGKGLEWIGCTFVGSSDSTYYANWAKGRVTISVDSSKNQFSLKLSSVTAADTAVYYCARHPSDAVYGYANNLWGQGTLVTVSSGGGGSGGGGSGGGGSGGGGSIQMTQSPSSLSASVGDRVTITCQASQSINNVLAWYQQKPGKAPKLLIYRASTLASGVPSRFSGSGSGTDFTLTISSLQPEDFATYYCQSSYGNYGDFGTGTKVTVLGGGGGSQVQLQESGPGLVKPSETLSLTCKVSGFSFSSGYDMCWIRQPPGKGLEWIGCVVAGSVDITYYASWAKGRVTISVDSSKNQFSLKLSSVTAADTAVYYCARKDAYSDAFNLWGQGTLVTVSSGGGGSGGGGSIQMTQSPSSLSASVGDRVTITCQSSESVYSNNQLSWYQQKPGQPPKLLIYDASDLASGVPSRFSGSGSGTDFTLTISSLQPEDFATYYCAGGFSSSSDTAFGGGTKLTVLGGGGGSGGGGSGGGGSGGGGSEVQLVESGGGLVQPGGSLRLSCAASGFSLSSNAMGWVRQAPGKGLEYIGIISVGGFTYYASWAKGRFTISRDNSKNTVYLQMNSLRAEDTATYFCARDRHGGDSSGAFYLWGQGTLVTVSS
notes: trispecific scDb-scFv anti-PDL1 x CD137 x HSA; also called PRO1051; 38-02-A04 sc01 scDb-i/33-03-G02 sc01 scDb-o/19-01-H04-sc03 scFv
